“Also recorded” adds a separate entry of the source.

The subject of data set [1] is HeLa cells. Put plainly: PARP-1 cleavage by SDS-PAGE and Western blotting after transfection of mRNAs encoding SQT-BH3 constructs. It is filed as cell-based. To be noted: from anti-FLAG and anti-GFP Western blotting. An excerpt:
The cleavage of PARP-1 was detected by the appearance of a faster-migrating band and concomitant loss of the full-length band by SDS-PAGE and Western blotting. Western blotting with anti-actin antibodies served as a loading control.
For orientation: A western blot detects proteins with antibodies after separation by electrophoresis.

The target of another data set is T1, BCL-XL (Homo sapiens, UniProt Q07817).
T1 construct: endogenous in cells; host or cells: cells transfected with SQT-BH3 mRNA (HeLa by context)
Put plainly: Co-immunoprecipitation after mRNA transfection. It is filed as binding. To be noted: within two hours after mRNA transfection.

For the next data set, the target named is T2, BCL-2 (Homo sapiens, UniProt P10415).
T2 construct: endogenous in cells; host or cells: cells transfected with SQT-BH3 mRNA (HeLa by context)
Put plainly: Co-immunoprecipitation after mRNA transfection. It is filed as binding. As to conditions: within two hours after mRNA transfection.

A further data set has as its target T3, MCL-1 (Homo sapiens, UniProt Q07820).
T3 construct: performed in lysates of HeLa cells transfected with mRNAs encoding SQT-BH3 constructs; endogenous in cells; host or cells: HeLa
Put plainly: Co-immunoprecipitation in lysates of transfected HeLa cells. To be noted: lysates of HeLa cells transfected with mRNAs. It is filed as binding.

Data set [2] concerns human melanoma cells (A375). Put plainly: Cell death after mRNA transfection. It is filed as cell-based.
For data set [3], the system named is human hepatocellular carcinoma (Hep G2) cells. Put plainly: Cell death and morphology after mRNA transfection. It is filed as cell-based. The text has this: A representative graph of the apoptotic ability of the SQT-BH3 constructs is shown in FIG. 2, showing the cell killing capacity of the SQT-BH3 constructs in Hep G2 cells.
For data set [4], the system named is Hep3B cells. Put plainly: Cell death by YOYO-3 with MC3-formulated LNPs. It is filed as cell-based. The procedure: The efficacy of mRNAs encoding SQT-BH3 constructs in inducing cell death was tested both in hepatocellular carcinoma cell lines as well as in primary hepatocytes using lipid nanoparticle (LNP)-formulated constructs. Hep3B cells were treated with varying doses (0.78 ng to 50 ng) of MC3-formulated LNPs in the presence of YOYO-3 (Life Technologies), a DNA dye that is taken up preferentially by dead cells that is used to measure the extent of cell death. MC3 lipid nanoparticles included MC3 50%, DSPC 10%, Cholesterol 38.5%, PEG-DMG 1.5%, N:P ˜5.5.

Another data set has as its system HepG2 cells. Put plainly: Cell death by YOYO3 with MC3 LNPs. It is filed as cell-based.
The test system of another data set is primary hepatocytes. Put plainly: Apoptosis induction by MC3 LNP-formulated mRNAs in primary hepatocytes cultured in vitro. It is filed as cell-based.
For data set [5], the system named is HeLa cells. Put plainly: Efficiency of cell killing at low mRNA dose. It is filed as cell-based. As to conditions: approximately 0.78 ng mRNA.
The subject of data set [6] is Hep3B cells. Put plainly: Efficiency of cell killing at low mRNA dose and dose-response. It is filed as cell-based.
In data set [7] the test system is Hep3B cells. Put plainly: Effect of insertion site position on apoptotic potency, YOYO3. It is filed as cell-based. As to conditions: Hep3B cells transfected with constructs. The procedure:
BH3 domain was inserted into either the N-terminal insertion site, the loop 1 insertion site or the loop 2 insertion site of the SQT scaffold polypeptide. The mRNA sequences of these SQT-BID-BH3 constructs, with a FLAG epitope tag, are shown in SEQ ID NOs: 43-45, respectively. Corresponding mRNA sequences without the FLAG tag are shown in SEQ ID NOs: 46-48. Hep3B cells were transfected with the constructs and the apoptotic ability of the constructs was assessed using YOYO3 to determine cell death, as described above.

For data set [8], the system named is Hep3B cells. Put plainly: Co-transfection of SQT-Bim-BH3 in MC3 LNPs with Bcl-2-like trap mRNA constructs, YOYO-3. It is filed as cell-based. To be noted: 272 picomolar SQT-Bim-BH3 in MC3 LNPs, increasing amounts of trap mRNA, 12 hour time point. An excerpt: YOYO-3 viability dye was used to assess apoptosis of cells.
Data set [9] relates to Hep3B cells. Put plainly: Anti-MCL1 mmRNA construct combined with SQT-PUMA-BH3, YOYO-3. It is filed as cell-based. To be noted: 50 ng anti-MCL1 mRNA, 1.6 ng SQT-PUMA-BH3, L2K, 48 hours. The procedure:
The anti-MCL1 mmRNA construct was tested for synergistic killing when combined with SQT-PUMA-BH3 in Hep3B cells. 20,000 Hep3B cells were seeded per well in 96-well plates. Each well was transfected with (a) 1.6 ng SQT-empty (“SQT-dummy”) or SQT-PUMA-BH3; and (b) 50 ng or 12.5 ng anti-MCL1 mRNA. Transfections of mRNA were done with Lipofectamine 2000 (L2K). After 48 hours, apoptosis measurements performed using YOYO-3 viability dye in an Incucyte instrument.

T1 sequence (Q07817 whole entry): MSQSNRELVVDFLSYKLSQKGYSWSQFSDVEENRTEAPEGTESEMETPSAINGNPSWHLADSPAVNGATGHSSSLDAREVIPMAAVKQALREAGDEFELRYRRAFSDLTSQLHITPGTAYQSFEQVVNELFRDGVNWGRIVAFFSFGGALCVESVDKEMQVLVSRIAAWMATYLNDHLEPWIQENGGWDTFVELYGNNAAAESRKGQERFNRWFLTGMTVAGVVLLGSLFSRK
T3 sequence (Q07820 whole entry): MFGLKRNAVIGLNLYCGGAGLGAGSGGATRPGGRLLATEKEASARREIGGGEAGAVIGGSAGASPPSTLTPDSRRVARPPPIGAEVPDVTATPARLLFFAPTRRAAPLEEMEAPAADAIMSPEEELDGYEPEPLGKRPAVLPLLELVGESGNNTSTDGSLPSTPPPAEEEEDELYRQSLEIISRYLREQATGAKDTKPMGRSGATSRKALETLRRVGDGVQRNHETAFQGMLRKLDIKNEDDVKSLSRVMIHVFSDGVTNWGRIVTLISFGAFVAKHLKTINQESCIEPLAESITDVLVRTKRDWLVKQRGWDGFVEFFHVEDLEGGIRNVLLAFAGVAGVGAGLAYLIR
T2 sequence (P10415 whole entry): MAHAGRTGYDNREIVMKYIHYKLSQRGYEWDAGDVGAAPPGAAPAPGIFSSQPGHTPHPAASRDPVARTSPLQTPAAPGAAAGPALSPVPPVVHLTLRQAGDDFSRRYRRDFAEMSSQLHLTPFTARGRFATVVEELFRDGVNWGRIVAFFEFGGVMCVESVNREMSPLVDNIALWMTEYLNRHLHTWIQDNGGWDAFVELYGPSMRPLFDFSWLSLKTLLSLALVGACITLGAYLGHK

B1: SQT-Bim-BH3: mRNA (SEQ ID NO: 50, FLAG) encoding SQT scaffold with Bim BH3 domain in N-terminus (nucleic acid)
chain: ATGATCCCAAGAGACATGCGCCCCGAAATTTGGATCGCCCAGGAGCTCAGACGCATCGGAGATGAATTCAACGCATACTACGCTCGGCGGGGACTCTCAGAAGCGAAGCCTGCCACCCCCGAAATCCAGGAAATCGTCGACAAGGTCAAGCCGCAGCTTGAGGAAAAGACCAACGAGACTTACGGAAAACTGGAGGCCGTGCAGTATAAGACCCAAGTGTTGGCCTCCACCAACTACTACATTAAGGTCCGCGCCGGCGATAACAAGTACATGCACCTGAAGGTGTTCAATGGTCCTCCGGGACAGAACGCGGACAGGGTGCTGACTGGCTACCAAGTGGACAAGAACAAGGACGACGAGCTGACGGGCTTCGACTACAAGGATGATGATGACAAA
modifications: FLAG tag; Synthetic SQT-BIM-BH3 mRNA sequence with FLAG epitope tag
With B1, in the data set on HeLa cells [1], the “cell death of transfected cells” value is reported as “underwent cell death”. Besides, the “interaction with BCL-XL by co-immunoprecipitation” value in the data set with BCL-XL is “able interact”. The “interaction with BCL-2 by co-immunoprecipitation” value with BCL-2 is on record as “to a lesser extent”. For the same molecule, the “co-immunoprecipitation of MCL-1” value with MCL-1 is recorded as “able to co-immunoprecipitate”. Also, the cell death result in data set [2] is “caused rapid cell death almost immediately following transfection”. Moreover, in [3], the cell death entry is reported as “caused rapid cell death almost immediately following transfection; also recorded: underwent cell death almost immediately following transfection” and the cell morphology entry is reported as “rounded-up cell morphology that is characteristic of apoptotic cells”. Further, the “cell killing (YOYO-3)” value with Hep3B cells [4] (four-fold lower concentration) is recorded as “induced cell killing in Hep3B cells more efficiently than SQT-PUMA-BH3”. The “apoptosis and cell death (YOYO-3)” value with Hep3B cells [4] (relatively high concentration) is “both induced apoptosis and cell death; also recorded: kills Hep3B cells at higher concentrations”. In addition, in the data set on HepG2 cells, the “cell death (YOYO3 staining)” value is reported as “lead to cell death; also recorded: kills HepG2 cells”; the “efficacy and timing of cell death, comparison” value is “induced cell death with an increase in both efficacy and timing compared to SQT-PUMA-BH3”. In the data set on primary hepatocytes (LNPs), the PARP-1 cleavage result is “also induced PARP-1 cleavage in primary hepatocytes”. For the same molecule, the “apoptosis (YOYO-3 dye uptake and fluorescence) as a function of time” value in the data set on primary hepatocytes (MC3-LNP-formulated) is reported as “induce apoptosis”. In addition, the “efficiency of cell killing” value in the data set with HeLa cells [5] was “killed both HeLa cells and Hep3B cells with greater efficiency than SQT-PUMA-BH3”. Further, the “efficiency of cell killing” value in the data set with Hep3B cells [6] (Hep3B cells, approximately 0.78 ng mRNA) was “killed both HeLa cells and Hep3B cells with greater efficiency than SQT-PUMA-BH3”. Moreover, the “cell killing, dose-response curve” value in the data set on Hep3B cells [6] (Hep3B, 12 hours after transfection, L2K lipid nanoparticles) is recorded as “more efficient cell killing by SQT-Bim-BH3 at low doses”.

B2: SQT(nt)BID-BH3: mRNA (SEQ ID NO: 43) encoding SQT with a single BID BH3 domain in the N-terminal insertion site (nucleic acid, listed as Homo sapiens)
chain: ATGATACCCAGACAAGAGGACATCATTCGTAACATCGCGCGACACCTGGCCCAGGTGGGGGACTCCATGGATCGATCAATCCCCCCTGGCTTATCCGAAGCTAAGCCAGCCACCCCTGAGATCCAAGAAATCGTCGACAAGGTCAAGCCCCAACTTGAAGAGAAAACTAATGAAACTTATGGTAAGCTCGAAGCCGTGCAATACAAGACTCAGGTCCTGGCGTCTACAAATTATTACATCAAGGTGAGGGCCGGGGACAATAAGTATATGCATCTGAAAGTCTTCAATGGCCCCCCTGGACAAAACGCAGATCGGGTGCTCACAGGATACCAGGTCGATAAAAATAAAGATGACGAACTTACTGGGTTTGATTATAAAGATGATGATGACAAG
modifications: (1)..(393) SQT(nt)BID-BH3 mRNA sequence with FLAG epitope tag
For B2, the “apoptotic potency (YOYO3 cell death)” value with Hep3B cells [7] is “more potent than the SQT-BID-BH3 constructs with the BH3 domain inserted at either the loop 1 insertion site or the loop 2 insertion site”.

B3: Bcl-2 (D34A) del.C32: Bcl-2-like trap mRNA, SEQ ID NO: 82, FLAG tag (nucleic acid)
chain: ATGGCACACGCTGGTAGGACAGGCTACGACAACCGTGAGATTGTGATGAAGTATATTCACTATAAGCTGTCTCAAAGAGGCTACGAATGGGATGCGGGGGCCGTCGGGGCTGCCCCACCTGGTGCCGCCCCGGCTCCTGGGATTTTCTCTTCCCAGCCGGGACATACCCCTCATCCTGCCGCTTCTAGGGACCCTGTGGCAAGAACATCCCCTCTACAGACCCCTGCCGCCCCAGGTGCGGCTGCTGGCCCAGCGTTAAGTCCCGTTCCACCAGTCGTGCACCTTACCCTTAGGCAAGCGGGCGACGATTTCTCTAGGCGATACCGGAGGGACTTTGCCGAAATGTCATCACAGCTCCATCTTACTCCATTTACTGCCCGTGGCAGATTCGCCACCGTAGTGGAAGAACTCTTTCGAGACGGCGTAAATTGGGGGAGGATCGTGGCATTTTTCGAATTTGGAGGGGTTATGTGTGTGGAGAGCGTGAATCGGGAAATGTCTCCTCTGGTTGACAATATTGCCTTGTGGATGACCGAATATCTTAACAGGCACCTCCACACCTGGATTCAAGATAATGGTGGATGGGATGCGTTTGTGGAACTTTATGGGCCTTCAATGCGTGACTATAAGGACGACGACGACAAA
modifications: FLAG tag; Synthetic Bcl-2(D34A)del.C32 BH3 mRNA sequence with FLAG epitope tag
Regarding B3, in the data set on Hep3B cells [8], the “protection from apoptosis by SQT-Bim-BH3 (YOYO-3)” value was “all of the tested trap constructs except Bcl-2 (D34A) del.C32 were able to protect”.

B4: SQT.(nt)Mcl1.BH3.cv5: anti-MCL1 mmRNA construct, ORF amino acid SEQ ID NO: 108, nucleotide SEQ ID NO: 112, v5 tag (nucleic acid)
chain: ATGATCCCTAGGAAGGCCCTGGAGACCCTGAGGAGAGTGGGCGACGGAGTGCAGAGGAACCACGAGACCGCCTTCGGCCTGAGCGAGGCAAAGCCAGCAACACCCGAGATCCAGGAGATCGTGGATAAGGTGAAGCCCCAGCTGGAGGAGAAGACCAATGAGACATACGGCAAGCTGGAGGCCGTGCAGTATAAGACCCAGGTGCTGGCCTCCACAAACTACTATATCAAGGTGCGGGCCGGCGACAATAAGTACATGCACCTGAAGGTGTTCAACGGACCACCTGGACAGAATGCAGACAGGGTGCTGACCGGCTATCAGGTGGATAAGAACAAGGACGATGAGCTGACAGGCTTTGGCAAGCCAATCCCCAATCCTCTGCTGGGCCTGGATTCTACA
modifications: V5 tag; Synthetic SQT.(nt)Mcl1.BH3.cv5
In the case of B4, the “apoptosis (YOYO-3) in combination with SQT-PUMA-BH3” value was “synergistic anti-apoptotic effect in combination with SQT-PUMA-BH3” in the data set on Hep3B cells [9] (listed as anti-MCL1 construct) and “synergistic pro-apoptotic effects” with Hep3B cells [9] (listed as anti-MCL1 mRNA construct).

Values taken from US20190119357A1, “MESSENGER RIBONUCLEIC ACIDS FOR THE PRODUCTION OF INTRACELLULAR BINDING POLYPEPTIDES AND METHODS OF USE THEREOF” (ModernaTX, Inc., priority 2015, published 2019).
